According to publication PMC4442619:

Assays:
[1] = target: C-terminal region of RING1B (C-RING1B), residues 222–336, with C-terminal hexahistidine tag (human) (UniProt Q99496); experiment: SPR
[2] = target: C-terminal region of RING1B (C-RING1B), residues 222–336, with C-terminal hexahistidine tag (human) (UniProt Q99496); experiment: native gel or EMSA
[3] = target: RING1B C-terminal domain (C-RING1B) (Homo sapiens) (UniProt Q99496); details: cited from earlier work
[4] = target: cbx7 cbox domain with C-terminal hexahistidine tag (human); experiment: AUC

Molecule | Kd [1] | other results
MBP–cbx7 cbox domain fusion protein (from UniProt O95931 1-251) (domain or fragment) | 9.2 nM | –
MBP–cbx8 cbox domain fusion protein (from UniProt Q9HC52 1-389) (domain or fragment) | 180 nM | –
MBP–cbx6 cbox domain fusion protein (from UniProt O95503 1-412) (domain or fragment) | 180 nM | –
cbx6 cbox domain (domain or fragment) | – | stoichiometry N [2]: 1
MBP–Drosophila Pc cbox domain fusion protein (from UniProt P26017 1-390) (domain or fragment) | 38 nM | –
RING1B C-terminal domain (C-RING1B) (from UniProt Q99496) | – | Kd [3]: 200000 nM
C-RING1B (residues 222–336) with C-terminal SRD sequence, coexpressed with the cbx7 cbox domain (domain or fragment) MEKTRGASEIELVFRPHPTLMEKDDSAQTRYIKTSGNATVDHLSKYLAVRLALEELRSKGESNQMNLDTASEKQYTIYIATASGQFTVLNGSFSLELVSEKYWKVNKPMELYYAPTKEHKSRD | – | stoichiometry N [4]: 1
